Earlier results on 1 substance are cited in publication doi:10.1101/2021.01.30.427993.

This series concerns Glu165. The note with it: not stated ('in the active site').

By pKa is commonly meant the negative logarithm of the acid dissociation constant. In the case of Triosephosphate isomerase (TIM), the pKa is given as 3.9.
